Data published in patent publication US12427188B2, “Pyocyanine demethylases and related phenazine degrading agents compositions, methods and systems for interfering with viability of bacteria” (priority 2020, dated 2025).
Where a chain is given by its changes, count along the chain named. In names and notes the source's numbering stands.

What was measured:
[1] = Continuous spectrophotometric PYO demethylation assay (specific activity and kinetics of PodA); type: biochemical; conditions: for catalytic efficiency compared with PodA^WT: Michaelis-Menten kinetics, 3 μM protein
Protocol: Specific activity and kinetics of PodA. To determine specific activity and kinetic parameters of PodA for PYO, a continuous spectrophotometric assay monitoring the absorbance of PYO (690 nm) was utilized. Briefly, assays were performed at 25° C. in 100 μL reaction volumes in 96-well plates and reactions were monitored at 690 nm over 10 min. Reaction mixtures contained Phosphate buffer (50 mM, pH 6.0), ethylene glycol (1%, v/v), protein (3 μM) and substrate (for specific activity, 100 μM, for kinetics, varying). Data were acquired using the SpectraMax® M3 Microplate Reader (Molecular Devices) using the Soft Max Pro software every 10 s over 10 min. Path lengths for each well were calculated using Soft Max Pro endpoint readings and slopes were corrected for path lengths of 1 cm.
Specific activity was calculated from the slope of the linear range of (ΔOD690 min^−1) using Beer's Law (A=εcl) with a path length of 1 cm and the molar extinction coefficient of PYO (4,130 M^−1 cm^−1). Equation was solved for c, giving specific activity in nmol min^−1 mg^−1 of PodA. For kinetic parameters, graphs of initial velocity (μM s^−1) versus substrate concentration (μM) were plotted using Prism v8 (GraphPad). The Michaelis-Menten kinetics model was used to determine Km and Vmax. The turnover number (kcat) was determined using the following equation: Vmax=kcat[E], where [E] was the concentration of PodA added. All spectrophotometric assays mentioned above were completed thrice, each in technical triplicate with a representative data set shown. Error bars represent standard deviation as calculated by Prism v8 (GraphPad). Standard deviation for kcat and Kcat KM^−1 was calculated using standard formulas for propagation of error.

[2] = Protein yield of PodA variants purified from inclusion bodies of overexpression culture; conditions: purified from inclusion bodies, per L of E. coli overexpression culture
Protocol: Protein overproduction and purification of soluble and inclusion body fractions. Plasmids coding for proteins of interest were transformed into E. coli BL21 […]. […]. Cultures were grown at 37° C. with shaking to an optical density of 0.4 (OD600 nm) and plasmid expression was induced with IPTG (50 μM) and shaken overnight at 16° C. Cells were harvested by centrifugation at 5,000×g for 10 min in a Beckman Coulter Avanti J-20 XOI refrigerated centrifuge using a JLA-8.1000 rotor at 4° C. Cell pellets were stored at −80° C. until used.
For purification of PodA from inclusion bodies, the pellets remaining following lysis and centrifugation at 40,000×g were resuspended in 20 mL of detergent buffer [50 mM HEPES (pH 7.5) and 1% Triton-X (v/v)] using a Bio-gen PRO200 cell homogenizer (PRO Scientific). Sample was spun for 15 min at 40,000×g at 4° C. in a Beckman Coulter Avanti centrifuge with a JA-25.50 rotor. Supernatant was discarded and the remaining cell pellet was resuspended in 5 mL of buffer [50 mM HEPES (pH 7.5), 500 mM NaCl] using a cell homogenizer, supplemented with lysozyme (200 μg mL^−1), and incubated for 10 min. Volume was increased to 20 mL with HEPES (50 mM, pH 7) and sample was spun for 40,000×g at 4° C. for 15 min. Supernatant was discarded and pellet was homogenized in 10 mL of denaturing buffer 50 mM HEPES (pH 7.5), 500 mM NaCl, and 8M urea) and incubating rocking overnight. The sample was spun at for 40,000×g at 25° C. for 30 min and supernatant was incubated with 1 mL HisPur Ni-NTA resin (Thermo Fisher Scientific) on a rocking platform for 10 min. Beads were allowed to settle without shaking, supernatant was discarded, and resin was pipetted into glass gravity columns. Resin was washed with 15 mL of denaturing buffer, followed by an elution with denaturing buffer supplemented with imidazole (500 mM). Fractions were analyzed by SDS-PAGE and those containing protein were combined into SnakeSkin 3.5 K MWCO dialysis tubing (Thermo Fisher Scientific). Urea was slowly dialyzed out in HEPES (50 mM, pH 7.5) and NaCl (500 mM) by lowing urea concentrations by 1 M increments. Each step was dialyzed at RT for 30 min. Protein was dialyzed in HEPES (50 mM, pH 7.5), NaCl (500 mM), and imidazole (20 mM) overnight at 4° C. The following day, protein was cleaved for 3 h at 25° C. with TEV protease (1:50 mg:mg ratio of TEV to PodA). The sample was applied to a HisPur gravity column and cleaved protein in the flow thru was confirmed by SDS-PAGE. Cleaved PodA protein was then dialyzed for storage for 3 h at 4° C. in HEPES (50 mM pH 7.5), NaCl (250 mM) and finally in HEPES (50 mM, pH 7.5), NaCl (100 mM), and glycerol (20%, v/v). Protein concentration was established on a NanoDrop™ using the extinction coefficient and MW of each protein. Protein was drop frozen in LN2 and stored at −80° C. until use.

[3] = pH 6, 1% ethylene glycol, PodA 3 μM, substrate PYO

B1: PodA^D72A: PodA active site variant D72A (protein)
chain: MTGKTKPAIIGGVAITALAAAGLGVWLFTDGRGGRSTTEPVTMTLDVKNDQVAKHDFGKPGMDVGDMDIFSAILSVDGKQVGYDGGACFFTNVTPDNPMTYCELTIHLDAGEIFARSLTPHTLAPFTMAITGGTGEYANSKGELTVSGVATPDEKYELKLTK
With B1 the “Activity of active site variants compared to controls” value (shortened to “Activity … compared to controls”) ([1]; PodA 3 μM, PYO varying) was “did not have measurable activity”.

B2: PodA^H121A: PodA active site variant H121A (protein)
chain: B1 chain with A72D, H121A
For B2, the “Activity … compared to controls” value ([1]; PodA 3 μM, PYO varying) was “did not have measurable activity”.

B3: PodA^H121K: PodA active site variant H121K (protein)
chain: B1 chain with A72D, H121K
In the case of B3, the “Activity … compared to controls” value ([1]; PodA 3 μM, PYO varying) is reported as “did not have measurable activity”.

B4: PodA^H121R: PodA active site variant H121R (protein)
chain: B1 chain with A72D, H121R
For B4, the “Activity … compared to controls” value ([1]; PodA 3 μM, PYO varying) was “did not have measurable activity”.

B5: PodA^E154A: PodA active site variant E154A, inactive (protein)
chain: B1 chain with A72D, E154A
For B5, the “Activity … compared to controls” value ([1]; PodA 3 μM, PYO varying) was “did not have measurable activity”.

B6: PodA^Y156A: PodA active site variant Y156A (protein)
chain: B1 chain with A72D, Y156A
With B6 the “Activity … compared to controls” value ([1]; PodA 3 μM, PYO varying) was “did not have measurable activity”.

B7: PodA^Y156F: PodA active site variant Y156F (protein)
chain: B1 chain with A72D, Y156F
For B7, the “Activity … compared to controls” value ([1]; PodA 3 μM, PYO varying) was “did not have measurable activity”.

B8: PodA^D68A: PodA variant inhibiting product release, D68A (protein)
chain: B1 chain with D68A, A72D
For B8, the Michaelis-Menten behaviour ([1]; PodA 3 μM, PYO varying) was “maintained similar Michaelis-Menten trends for concentrations of PYO under 100 μM, after which Vmax leveled off”.

B9: PodA8: Designed PodA41-162 variant: A53N, I73R, A87V, T91V, A129V (protein)
chain: VTMTLDVKNDQVNKHDFGKPGMDVGDMDIFSDRLSVDGKQVGYDGGVCFFVNVTPDNPMTYCELTIHLDAGEIFARSLTPHTLAPFTMVITGGTGEYANSKGELTVSGVATPDEKYELKLTK
In the case of B9, the “catalytic efficiency compared with PodA^WT” value [1] is reported as “no change in catalytic efficiency”, the “PYO demethylation activity relative to wild type” value ([1]; PYO 50 μM, PodA variants 3 μM) is reported as “wild-type activity was maintained” and the Yield [2] is reported as 2.1 mg/L^−1.

B10: WT PodA30-162: Truncated wild-type pyocyanin demethylase PodA, residues 30-162, SEQ ID NO: 2 (protein)
chain: MDGRGGRSTTEPVTMTLDVKNDQVAKHDFGKPGMDVGDMDIFSDILSVDGKQVGYDGGACFFTNVTPDNPMTYCELTIHLDAGEIFARSLTPHTLAPFTMAITGGTGEYANSKGELTVSGVATPDEKYELKLTKAENLYFQ
modifications: Sybthetic Polypeptide
With B10 the “pH of optimal activity” value ([1]; buffers pH 5.5-10.0, PodA 3 μM, PYO 100 μM) was 6, the “Effect of salts (NaCl and KCl) on activity” value ([1]; cystic fibrosis sputum range, 66 mM Na+, 15 mM K+) was “did not inhibit or enhance” and the “Effect of higher glycerol concentrations on the activity increase” value ([1]; glycerol 5 to 20%) was “reversed this activity increase”. For the same molecule, the Km [1, 3] was 372 µM, the catalytic efficiency [1, 3] was 4.73±0.24×10^2 M^−1 s^−1 and the kcat [1, 3] was 0.176 ± 0.003 s⁻¹. For the same molecule, the “Effect of slight increase in viscosity (ethylene glycol or glycerol 1% v/v) on activity” value ([1]; pH 6, PodA 3 μM, PYO 100 μM) was “enhanced”, the catalytic efficiency ([1]; protein from soluble fraction) was 1.05±0.093×10^2 M^−1 s^−1 and the catalytic efficiency ([1]; protein purified from inclusion bodies, denatured and refolded) was 1.14±0.25× 10^2 M^−1 s^−1.

B11: PodA830-162: PodA8 of SEQ ID NO: 2: A24N, I44R, A58V, T62V, A100V (protein)
chain: B10 chain with A25N, I45R, A59V, T63V, A101V
modifications: Sybthetic Polypeptide
For B11, the “catalytic efficiency compared with PodA^WT” value [1] was “no change”.

B12: PodA1030-162: PodA10 of SEQ ID NO: 2: A24N, I44T, A58V, M70V, A100T (protein)
chain: B10 chain with A25N, I45T, A59V, M71V, A101T
modifications: Sybthetic Polypeptide
For B12, the “catalytic efficiency compared with PodA^WT” value [1] was “slight increase in efficiency”.

B13: PodA9: Designed PodA41-162 variant: I73K, A87V, T91V, A129V, K141T (protein)
chain: B9 chain with N13A, R33K, K101T
B13 gave a Yield [2] of 1.28 mg/L^−1.

B14: PodA2: Designed PodA41-162 variant: I73T, A87V, T91V, M99V, A129V (protein)
chain: B9 chain with N13A, R33T, M59V
Work on B14 yielded a Yield [2] of 16.1 mg/L^−1.

B15: PodA3: Designed PodA41-162 variant: I73K, A87V, T91V, M99V, A129V (protein)
chain: B9 chain with N13A, R33K, M59V
Work on B15 yielded a Yield [2] of 9.45 mg/L^−1.

B16: PodA5: Designed PodA41-162 variant: I73L, A87I, M99V, A129V, K141T (protein)
chain: B9 chain with N13A, R33L, V47I, V51T, M59V, K101T
With B16 the Yield [2] was 9.9 mg/L^−1.

B17: PodA6: Designed PodA41-162 variant: I73R, A87V, T91V, M99V, A129T (protein)
chain: B9 chain with N13A, M59V, V89T
B17 showed a Yield [2] of 4.4 mg/L^−1.

B18: PodA7: Designed PodA41-162 variant: I73L, A87I, T91V, M99T, A129V (protein)
chain: B9 chain with N13A, R33L, V47I, M59T
Molecule B18 has a Yield [2] of 4.1 mg/L^−1.
